Experimental data: the supplement of paper PMC5998384

What was measured:
HeLa Kyoto [1] = experiment: solubility change mitosis vs G1/S (difference of NP-40 vs SDS log2 ratios) (log2 ratio difference); higher = more soluble in mitosis
HeLa Kyoto [2] = experiment: melting temperature (median over replicates), in situ; higher = more thermally stable
HeLa Kyoto [3] = experiment: solubility in G1/S (NP-40 vs SDS abundance) (log2 ratio); higher = more soluble; details: cell cycle stage: G1/S
HeLa Kyoto [4] = experiment: thermal stability score vs G1/S (z-score of summed log2 fold changes over temperatures); higher = more thermally stable than in G1/S
[5] = cell cycle stage: early G1 (4.5 h after nocodazole release)
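Throughout, for melting temperature (median over replicates), in situ: HeLa Kyoto cells synchronized by double thymidine or nocodazole block, proteins quantified by TMT10plex mass spectrometry, three independent biological replicates.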
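Throughout, for solubility change mitosis vs G1/S (difference of NP-40 vs SDS log2 ratios): synchronized HeLa Kyoto cells (double thymidine block for G1/S, nocodazole release for mitosis), protein amounts in NP-40 versus SDS lysates quantified by mass spectrometry, three biological replicates.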
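Throughout, for solubility in G1/S (NP-40 vs SDS abundance): HeLa Kyoto cells arrested at G1/S by double thymidine block, proteins quantified by TMT10plex mass spectrometry in mild NP-40 versus SDS extracts, three biological replicates.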
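Throughout, for thermal stability score vs G1/S (z-score of summed log2 fold changes over temperatures): synchronized HeLa Kyoto cells, proteins quantified by TMT10plex mass spectrometry, three biological replicates, mitosis taken 0.5 h after nocodazole release, G1/S directly after double thymidine block.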

| Sequence | solubility change mitosis (log2) (HeLa Kyoto [1]) | melting temperature (HeLa Kyoto [2]; cell cycle stage: G1/S) [°C] | melting temperature (HeLa Kyoto [2]; cell cycle stage: mitosis) [°C] | solubility in G1/S (log2) (HeLa Kyoto [3]) | thermal stability score (HeLa Kyoto [4]; [5]) | thermal stability score (HeLa Kyoto [4]; cell cycle stage: mitosis) |
| --- | --- | --- | --- | --- | --- | --- |
| MLEEAGEVLENMLKASCLPLGFIVFLPAVLLLVAPPLPAADAAHEFTVYRMQQYDLQGQPYGTRNAVLNTEARTMAAEVLSRRCVLMRLLDFSYEQYQKALRQSAGAVVIILPRAMAAVPQDVVRQFMEIEPEMLAMETAVPVYFAVEDEALLSIYKQTQAASASQGSASAAEVLLRTATANGFQMVTSGVQSKAVSDWLIASVEGRLTGLGGEDLPTIVIVAHYDAFGVAPWLSLGADSNGSGVSVLLELARLFSRLYTYKRTHAAYNLLFFASGGGKFNYQGTKRWLEDNLDHTDSSLLQDNVAFVLCLDTVGRGSSLHLHVSKPPREGTLQHAFLRELETVAAHQFPEVRFSMVHKRINLAEDVLAWEHERFAIRRLPAFTLSHLESHRDGQRSSIMDVRSRVDSKTLTRNTRIIAEALTRVIYNLTEKGTPPDMPVFTEQMQIQQEQLDSVMDWLTNQPRAAQLVDKDSTFLSTLEHHLSRYLKDVKQHHVKADKRDPEFVFYDQLKQVMNAYRVKPAVFDLLLAVGIAAYLGMAYVAVQHFSLLYKTVQRLLVKAKTQ [NCLN] | -0.129 | 53.9 | 53.7 | 0.0995 | 2.71 | 3.43 |
| MLEEDMEVAIKMVVVGNGAVGKSSMIQRYCKGIFTKDYKKTIGVDFLERQIQVNDEDVRLMLWDTAGQEEFDAITKAYYRGAQACVLVFSTTDRESFEAVSSWREKVVAEVGDIPTVLVQNKIDLLDDSCIKNEEAEALAKRLKLRFYRTSVKEDLNVNEVFKYLAEKYLQKLKQQIAEDPELTHSSSNKIGVFNTSGGSHSGQNSGTLNGGDVINLRPNKQRTKKNRNPFSSCSIP [RAB23] | -0.139 | 53.2 | 53.2 | -0.0011 | 1.88 | 1.67 |
| MLERRCRGPLAMGLAQPRLLSGPSQESPQTLGKESRGLRQQGTSVAQSGAQAPGRAHRCAHCRRHFPGWVALWLHTRRCQARLPLPCPECGRRFRHAPFLALHRQVHAAATPDLGFACHLCGQSFRGWVALVLHLRAHSAAKRPIACPKCERRFWRRKQLRAHLRRCHPPAPEARPFICGNCGRSFAQWDQLVAHKRVHVAEALEEAAAKALGPRPRGRPAVTAPRPGGDAVDRPFQCACCGKRFRHKPNLIAHRRVHTGERPHQCPECGKRFTNKPYLTSHRRIHTGEKPYPCKECGRRFRHKPNLLSHSKIHKRSEGSAQAAPGPGSPQLPAGPQESAAEPTPAVPLKPAQEPPPGAPPEHPQDPIEAPPSLYSCDDCGRSFRLERFLRAHQRQHTGERPFTCAECGKNFGKKTHLVAHSRVHSGERPFACEECGRRFSQGSHLAAHRRDHAPDRPFVCPDCGKAFRHKPYLAAHRRIHTGEKPYVCPDCGKAFSQKSNLVSHRRIHTGERPYACPDCDRSFSQKSNLITHRKSHIRDGAFCCAICGQTFDDEERLLAHQKKHDV [REPIN1] | -0.0234 | 54.4 | 52.9 | -0.0762 | -0.836 | -2.05 |
| MLFIFNFLFSPLPTPALICILTFGAAIFLWLITRPQPVLPLLDLNNQSVGIEGGARKGVSQKNNDLTSCCFSDAKTMYEVFQRGLAVSDNGPCLGYRKPNQPYRWLSYKQVSDRAEYLGSCLLHKGYKSSPDQFVGIFAQNRPEWIISELACYTYSMVAVPLYDTLGPEAIVHIVNKADIAMVICDTPQKALVLIGNVEKGFTPSLKVIILMDPFDDDLKQRGEKSGIEILSLYDAENLGKEHFRKPVPPSPEDLSVICFTSGTTGDPKGAMITHQNIVSNAAAFLKCVEHAYEPTPDDVAISYLPLAHMFERIVQAVVYSCGARVGFFQGDIRLLADDMKTLKPTLFPAVPRLLNRIYDKVQNEAKTPLKKFLLKLAVSSKFKELQKGIIRHDSFWDKLIFAKIQDSLGGRVRVIVTGAAPMSTSVMTFFRAAMGCQVYEAYGQTECTGGCTFTLPGDWTSGHVGVPLACNYVKLEDVADMNYFTVNNEGEVCIKGTNVFKGYLKDPEKTQEALDSDGWLHTGDIGRWLPNGTLKIIDRKKNIFKLAQGEYIAPEKIENIYNRSQPVLQIFVHGESLRSSLVGVVVPDTDVLPSFAAKLGVKGSFEELCQNQVVREAILEDLQKIGKESGLKTFEQVKAIFLHPEPFSIENGLLTPTLKAKRGELSKYFRTQIDSLYEHIQD [ACSL5] | -0.0802 | 51.8 | 51.1 | -0.0641 | -0.104 | -0.53 |
| MLFLALGSPWAVELPLCGRRTALCAAAALRGPRASVSRASSSSGPSGPVAGWSTGPSGAARLLRRPGRAQIPVYWEGYVRFLNTPSDKSEDGRLIYTGNMARAVFGVKCFSYSTSLIGLTFLPYIFTQNNAISESVPLPIQIIFYGIMGSFTVITPVLLHFITKGYVIRLYHEATTDTYKAITYNAMLAETSTVFHQNDVKIPDAKHVFTTFYAKTKSLLVNPVLFPNREDYIHLMGYDKEEFILYMEETSEEKRHKDDK [TMEM70] | -0.344 | 54.1 | 53.4 | -0.0239 | 0.217 | -1.65 |
| MLFYSFFKSLVGKDVVVELKNDLSICGTLHSVDQYLNIKLTDISVTDPEKYPHMLSVKNCFIRGSVVRYVQLPADEVDTQLLQDAARKEALQQKQ [LSM2] | 0.0659 | 59.9 | 57.5 | -0.0676 | -1.17 | -1.99 |
| MLGMIKNSLFGSVETWPWQVLSKGDKEEVAYEERACEGGKFATVEVTDKPVDEALREAMPKVAKYAGGTNDKGIGMGMTVPISFAVFPNEDGSLQKKLKVWFRIPNQFQSDPPAPSDKSVKIEEREGITVYSMQFGGYAKEADYVAQATRLRAALEGTATYRGDIYFCTGYDPPMKPYGRRNEIWLLKT [HEBP1] | 0.0399 | 52.9 | 53.3 | 0.27 | -1.08 | -2.04 |
| MLGPHLPPPPLAPSEGRPTPCAFQIPDGSYRCLALEAEESSGEEGLQGEVGPTDLEEDEGVSRSGDDSACRVTQGTPQLPKALGIQPPSCSREEQGASQHDDRASQDWDVVKAGQMMTASPSPGPGPRVAQKPALGRSTSLTEKDLKEAKARSQQIAAQLTTPPSSNSRGVQLFNRRRQRVNEFTLESHGQRGQKPSQESLRVLPSSLPGHAPGLSLSSTSLPEPGPPRHPSPQSPDRGVPGHSMEGYSEEASLLRHLEKVASEEEEVPLVVYLKENAALLTANGLHLSQNREAQQSSPAPPPAEVHSPAADVNQNLASPSATLTTPTSNSSHNPPATDVNQNPPATVVPQSLPLSSIQQNSSEAQLPSNGTGPASKPSTLCADGQPQAPAEEVRCSTLLIDKVSTPATTTSTFSREATLIPSSRPPASDFMSSSLLIDIQPNTLVVSADQEMSGRAAATTPTKVYSEVHFTLAKPPSVVNRTARPFGIQAPGGTSQMERSPMLERRHFGEKAPAPQPPSLPDRSPRPQRHIMSRSPMVERRMMGQRSPASERRPLGNFTAPPTYTETLSTAPLASWVRSPPSYSVLYPSSDPKSSHLKGQAVPASKTGILEESMARRGSRKSMFTFVEKPKVTPNPDLLDLVQTADEKRRQRDQGEVGVEEEPFALGAEASNFQQEPAPRDRASPAAAEEVVPEWASCLKSPRIQAKPKPKPNQNLSEASGKGAELYARRQSRMEKYVIESSSHTPELARCPSPTMSLPSSWKYPTNAPGAFRVASRSPARTPPASLYHGYLPENGVLRPEPTKQPPYQLRPSLFVLSPIKEPAKVSPRAASPAKPSSLDLVPNLPKGALPPSPALPRPSRSSPGLYTSPGQDSLQPTAVSPPYGGDISPVSPSRAWSPRAKQAPRPSFSTRNAGIEAQVWKPSFCFK [SYNPO] | 1.62 |  | 52.8 | -1.65 | -0.595 | -3 |
| MLGSLVLRRKALAPRLLLRLLRSPTLRGHGGASGRNVTTGSLGEPQWLRVATGGRPGTSPALFSGRGAATGGRQGGRFDTKCLAAATWGRLPGPEETLPGQDSWNGVPSRAGLGMCALAAALVVHCYSKSPSNKDAALLEAARANNMQEVSRLLSEGADVNAKHRLGWTALMVAAINRNNSVVQVLLAAGADPNLGDDFSSVYKTAKEQGIHSLEDGGQDGASRHITNQWTSALEFRRWLGLPAGVLITREDDFNNRLNNRASFKGCTALHYAVLADDYRTVKELLDGGANPLQRNEMGHTPLDYAREGEVMKLLRTSEAKYQEKQRKREAEERRRFPLEQRLKEHIIGQESAIATVGAAIRRKENGWYDEEHPLVFLFLGSSGIGKTELAKQTAKYMHKDAKKGFIRLDMSEFQERHEVAKFIGSPPGYVGHEEGGQLTKKLKQCPNAVVLFDEVDKAHPDVLTIMLQLFDEGRLTDGKGKTIDCKDAIFIMTSNVASDEIAQHALQLRQEALEMSRNRIAENLGDVQISDKITISKNFKENVIRPILKAHFRRDEFLGRINEIVYFLPFCHSELIQLVNKELNFWAKRAKQRHNITLLWDREVADVLVDGYNVHYGARSIKHEVERRVVNQLAAAYEQDLLPGGCTLRITVEDSDKQLLKSPELPSPQAEKRLPKLRLEIIDKDSKTRRLDIRAPLHPEKVCNTI [CLPB] | -0.0294 | 52 | 51.8 | 0.0358 | 0.555 | 0.467 |
| MLHFNRCHHLKKITQKCFSSIHVKTDKHAQRFLSRTFALAELRKSWYSTHSLVGDKNIILMGPPGAGKTTVGRIIGQKLGCCVIDVDDDILEKTWNMSVSEKLQDVGNEQFLEEEGKAVLNFSASGSVISLTGSNPMHDASMWHLKKNGIIVYLDVPLLDLICRLKLMKTDRIVGQNSGTSMKDLLKFRRQYYKKWYDARVFCESGASPEEVADKVLNAIKRYQDVDSETFISTRHVWPEDCEQKVSAKFFSEAVIEGLASDGGLFVPAKEFPKLSCGEWKSLVGATYVERAQILLERCIHPADIPAARLGEMIETAYGENFACSKIAPVRHLSGNQFILELFHGPTGSFKDLSLQLMPHIFAHCIPPSCNYMILVATSGDTGSAVLNGFSRLNKNDKQRIAVVAFFPENGVSDFQKAQIIGSQRENGWAVGVESDFDFCQTAIKRIFNDSDFTGFLTVEYGTILSSANSINWGRLLPQVVYHASAYLDLVSQGFISFGSPVDVCIPTGNFGNILAAVYAKMMGIPIRKFICASNQNHVLTDFIKTGHYDLRERKLAQTFSPSIDILKSSNLERHLHLMANKDGQLMTELFNRLESQHHFQIEKALVEKLQQDFVADWCSEGECLAAINSTYNTSGYILDPHTAVAKVVADRVQDKTCPVIISSTAHYSKFAPAIMQALKIKEINETSSSQLYLLGSYNALPPLHEALLERTKQQEKMEYQVCAADMNVLKSHVEQLVQNQFI [THNSL1] | -0.0759 | 52.5 | 52.7 | -0.0605 | 0.435 | -0.697 |
